Reference: PMC7447783, “Cryo-EM structure of trimeric Mycobacterium smegmatis succinate dehydrogenase with a membrane-anchor SdhF” (Nature Communications, 2020)

Tests used:
[1] = molecular target: T1, Sdh2 (trimeric diheme succinate:menaquinone oxidoreductase, complex II) (Mycolicibacterium smegmatis, UniProt A0QT08+A0QT09+A0QT10); assay: cryo-EM structure, […] Å; format: binding; conditions: co-purified; SdhA subunit
T1 construct: gene sdhA; SdhD with C-terminal 10xHis tag (pVV16) expressed in M. smegmatis; digitonin-solubilised, Ni-NTA and gel filtration; trimer of SdhABCDF; SdhF 3 kDa; with Succinate dehydrogenase iron-sulfur subunit; Succinate dehydrogenase membrane-anchor subunit SdhF

[2] = molecular target: Mycobacterium smegmatis succinate dehydrogenase Sdh2 (trimer of SdhA-SdhB-SdhC-SdhD-SdhF protomers) (M. smegmatis) (UniProt A0QT09); assay: cryo-EM structure; digitonin-solubilised Sdh2 complex co-purified from M. smegmatis membranes, 5 mg/mL, 20 mM MOPS pH 7.4, 100 mM NaCl, 0.1% digitonin; 2.8 Å
[3] = molecular target: the molecule itself; assay: as above

Cc1cc2nc3c(=O)[nH]c(=O)nc-3n(C[C@H](O)[C@H](O)[C@H](O)COP(=O)(O)OP(=O)(O)OC[C@H]3O[C@@H](n4cnc5c(N)ncnc54)[C@H](O)[C@@H]3O)c2cc1C [FAD] was tested. Which “cryo-EM structure, 2.8 Å” value [1] did it give?
The value was “All the prosthetic groups (FAD, [2Fe-2S], [4Fe-4S], [3Fe-4S], and two b-type heme groups)”.

“Mycobacterium smegmatis succinate dehydrogenase Sdh2 (trimer of SdhA-SdhB-SdhC-SdhD-SdhF protomers) (from UniProt A0QT09 1-156) (complex)” was tested. Which stoichiometry N [2] did it give?
Its stoichiometry N is 3.

B1: SdhD subunit of M. smegmatis Sdh2 (membrane-anchored protein) with C-terminal 10x His tag (natural protein)
chain: MSAPGAGESRLGRPAPVMEREHDRPAALDHPRAPRKPRGIPYFEKYAWLFMRFSGIALVFLALGHLFIMLMWQDGVYRIDFNYVAERWASPFWQIWDMALLWLAMIHGANGMRTIIGDYARKNVTKFWLNSLLLLATGFTLVLGSYVLVTFDANIS
notes: SdhD (Sdh2D), membrane-anchor subunit of M. smegmatis Sdh2 with three transmembrane helices (IV-VI), gene MSMEG_1671; also called Sdh2D; subunit D; source: M. smegmatis mc2 51, expressed from pVV16; digitonin extract of membranes, purified with the complex (Ni-NTA, Superdex 200); not shown: His10, C-terminal, kept
Does B1 bind [3]?
Result: binds
